From patent US20120316071A1 (published 2012)
Positions count from the first letter of the chain named. In names and notes the source's numbering stands. Each block holds one binder with its values, some of them ahead of it.

How the values were obtained:
[1] = target: T1, Recombinant Human DLL4 (delta-like protein 4) (human, UniProt Q9NR61 27-524); test: ELISA, DLL4 coated on plate; Fab at 100 (head prints µM, text says nM)
T1 construct: Bought recombinant protein (R&D Systems Cat#1506-D4/CF); also called rHuman DLL4; Delta-like 4

[2] = target: T1, Recombinant Human DLL4 (delta-like …); test: ELISA, DLL4 coated on plate; Fab at 0.05 (head prints µM, text says nM)
[3] = target: T1, Recombinant Human DLL4 (delta-like …); test: ELISA, DLL4 coated on plate; Fab at 0.14 (head prints µM, text says nM)
[4] = target: T1, Recombinant Human DLL4 (delta-like …); test: ELISA, DLL4 coated on plate; Fab at 0.41 (head prints µM, text says nM)
[5] = target: T1, Recombinant Human DLL4 (delta-like …); test: ELISA, DLL4 coated on plate; Fab at 1.23 (head prints µM, text says nM)
[6] = target: T1, Recombinant Human DLL4 (delta-like …); test: ELISA, DLL4 coated on plate; Fab at 3.70 (head prints µM, text says nM)
[7] = target: T1, Recombinant Human DLL4 (delta-like …); test: ELISA, DLL4 coated on plate; Fab at 11.11 (head prints µM, text says nM)
[8] = target: T1, Recombinant Human DLL4 (delta-like …); test: ELISA, DLL4 coated on plate; Fab at 33.33 (head prints µM, text says nM)
[9] = target: T2, Recombinant Human DLL4 (R&D Systems Cat#1506-D4/CF) (human, UniProt Q9NR61 27-524); test: 96-well plate ECL, DLL4 coated
T2 construct: bought recombinant protein; also called rHuman DLL4; delta-like protein 4

[10] = target: T3, rHuman CD44/Fc Chimera, CF (R&D Systems Cat#3660-CD) (human, UniProt P16070 21-220); test: ECL Multispot (MSD), antigen spotted on plate, Fab 0.1 uM;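 further: ratio compares each antigen's electrochemiluminescence to the blank within the same well, with a ratio of at least 4 counted as a binding Fab hit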
T3 construct: Bought recombinant Fc chimera; not shown: Fc of the bought R&D Systems chimera

[11] = target: T4, rHuman IGF-1 sR, CF (R&D Systems Cat#391-GR) (human, UniProt P08069 31-932); test: as above
T4 construct: Bought recombinant soluble receptor; also called insulin-like growth factor-1 soluble receptor

[12] = target: T5, rHuman P-Cadherin/Fc Chimera, CF (R&D Systems Cat#861-PC) (human, UniProt P22223 108-654); test: as above
T5 construct: Bought recombinant Fc chimera; not shown: Fc of the bought R&D Systems chimera

[13] = target: T6, rHuman Erythropoietin R/Fc Chimera, CF (R&D Systems Cat#963-ER) (human, UniProt P19235 25-250); test: as above
T6 construct: Bought recombinant Fc chimera; also called EPO R; EPO R/Fc; not shown: Fc of the bought R&D Systems chimera
T6 sequence (looked up): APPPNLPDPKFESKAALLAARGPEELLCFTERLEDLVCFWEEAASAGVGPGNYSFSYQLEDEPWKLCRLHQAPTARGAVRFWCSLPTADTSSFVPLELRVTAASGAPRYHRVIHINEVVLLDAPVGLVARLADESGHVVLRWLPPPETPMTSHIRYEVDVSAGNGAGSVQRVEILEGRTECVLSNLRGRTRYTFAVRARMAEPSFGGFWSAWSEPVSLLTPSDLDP

[14] = target: T7, Recombinant Human DLL4 (R&D Systems Cat#1506-D4/CF) (human, UniProt Q9NR61 27-524); test: as above
T7 construct: Bought recombinant protein; also called delta-like protein 4; rHuman DLL4

[15] = target: T8, rHuman ErbB2/Fc Chimera, CF (R&D Systems Cat#1129-ER) (human, UniProt P04626 23-652); test: as above
T8 construct: Bought recombinant Fc chimera; not shown: Fc of the bought R&D Systems chimera

[16] = target: T9, rHuman EGF R/Fc Chimera, CF (R&D Systems Cat#344-ER) (human, UniProt P00533 25-645); test: as above
T9 construct: Bought recombinant Fc chimera; not shown: Fc of the bought R&D Systems chimera

[17] = target: T10, rHuman HGF R/c-MET/Fc Chimera, CF (R&D Systems Cat#358-MT/CF) (human, UniProt P08581 25-932); test: as above
T10 construct: Bought recombinant Fc chimera; also called HGF R/Fc; not shown: Fc of the bought R&D Systems chimera
T10 sequence (P08581 25-932, change not shown): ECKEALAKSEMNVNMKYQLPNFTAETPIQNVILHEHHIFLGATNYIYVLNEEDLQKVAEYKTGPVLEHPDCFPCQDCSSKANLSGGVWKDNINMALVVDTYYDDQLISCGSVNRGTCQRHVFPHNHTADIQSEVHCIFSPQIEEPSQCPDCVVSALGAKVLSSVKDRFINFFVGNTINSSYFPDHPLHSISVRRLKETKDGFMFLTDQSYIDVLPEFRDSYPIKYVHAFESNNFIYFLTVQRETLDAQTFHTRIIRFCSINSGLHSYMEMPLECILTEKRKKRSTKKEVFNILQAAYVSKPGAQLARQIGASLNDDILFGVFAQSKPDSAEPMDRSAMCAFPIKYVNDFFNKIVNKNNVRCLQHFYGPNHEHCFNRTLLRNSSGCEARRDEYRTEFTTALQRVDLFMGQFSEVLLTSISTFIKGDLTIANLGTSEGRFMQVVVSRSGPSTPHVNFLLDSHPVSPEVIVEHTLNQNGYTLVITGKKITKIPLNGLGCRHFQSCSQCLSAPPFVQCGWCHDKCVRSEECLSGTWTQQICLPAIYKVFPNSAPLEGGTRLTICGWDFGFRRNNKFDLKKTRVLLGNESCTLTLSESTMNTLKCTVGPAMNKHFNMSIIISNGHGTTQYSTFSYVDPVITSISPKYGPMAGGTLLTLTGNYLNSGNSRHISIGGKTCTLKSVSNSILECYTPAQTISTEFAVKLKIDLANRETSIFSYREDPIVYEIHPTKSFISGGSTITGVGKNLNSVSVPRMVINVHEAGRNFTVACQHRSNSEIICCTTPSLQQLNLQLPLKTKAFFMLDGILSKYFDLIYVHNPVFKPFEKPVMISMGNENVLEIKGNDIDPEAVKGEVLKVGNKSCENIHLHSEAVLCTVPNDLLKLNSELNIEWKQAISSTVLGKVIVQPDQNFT

[18] = target: T11, rHuman Notch-1/Fc Chimera, CF (R&D Systems Cat#3647-TK) (human, UniProt P46531 19-526); test: as above
T11 construct: Bought recombinant Fc chimera; not shown: Fc of the bought R&D Systems chimera

[19] = target: T3, rHuman CD44/Fc Chimera, CF (R&D Systems …); test: ECL Multispot (MSD), antigen spotted on plate, Fab 0.01 uM;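 further: electrochemiluminescence of each antigen spot divided by the blank of the same well, with a value of 4 or above scoring the Fab as a binding hit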
[20] = target: T4, rHuman IGF-1 sR, CF (R&D Systems …); test: as above
[21] = target: T5, rHuman P-Cadherin/Fc Chimera, CF (R&D …); test: as above
[22] = target: T6, rHuman Erythropoietin R/Fc Chimera, CF …; test: as above
[23] = target: T7, Recombinant Human DLL4 (R&D Systems …); test: as above
[24] = target: T8, rHuman ErbB2/Fc Chimera, CF (R&D …); test: as above
[25] = target: T9, rHuman EGF R/Fc Chimera, CF (R&D …); test: as above
[26] = target: T10, rHuman HGF R/c-MET/Fc Chimera, CF (R&D …); test: as above
[27] = target: T11, rHuman Notch-1/Fc Chimera, CF (R&D …); test: as above

ELISA signal [1]: 0.34
ELISA signal [2]: 0.02
ELISA signal [3]: 0.03
ELISA signal [4]: 0.02
ELISA signal [5]: 0.03
ELISA signal [6]: 0.03
ELISA signal [7]: 0.07
ELISA signal [8]: 0.19
B1: Fab VH5-51_IGHD5-18*01>3_IGHJ4*01 G100K/G104T G24T/S28R/G35V (H:KT TRV) & V3-4_IGLJ1*01 V91L/S96P (L:LP) (Fab, V domains shown)
VH: EVQLVQSGAEVKKPGESLKISCKTSGYRFTSYWIVWVRQMPGKGLEWMGIIYPGDSDTRYSPSFQGQVTISADKSISTAYLQWSSLKASDTAMYYCARRKYSYTYDYFDYWGQGTLVTVSS
VL: QTVVTQEPSFSVSPGGTVTLTCGLSSGSVSTSYYPSWYQQTPGQAPRTLIYSTNTRSSGVPDRFSGSILGNKAALTITGAQADDESDYYCLLYMGPGISYVFGTGTKVTVL
notes: Tested as a Fab made in E. coli; also called H:KT TRV & L:LP

ELISA signal [1]: 0.24
ELISA signal [2]: 0.02
ELISA signal [3]: 0.02
ELISA signal [4]: 0.03
ELISA signal [5]: 0.03
ELISA signal [6]: 0.03
ELISA signal [7]: 0.06
ELISA signal [8]: 0.12
B2: Fab VH5-51_IGHD5-18*01>3_IGHJ4*01 G100K/G104T G24T/S28R/G35V (H:KT TRV) & V3-4_IGLJ1*01 V91L/S96P S52M (Fab, V domains shown)
VH: B1 VH
VL: B1 VL with S52M
notes: Tested as a Fab made in E. coli; also called H:KT TRV & L:LP S52M

ELISA signal [1]: 0.69
ELISA signal [2]: 0.02
ELISA signal [3]: 0.02
ELISA signal [4]: 0.01
ELISA signal [5]: 0.03
ELISA signal [6]: 0.06
ELISA signal [7]: 0.17
ELISA signal [8]: 0.35
B3: Fab VH5-51_IGHD5-18*01>3_IGHJ4*01 G100K/G104T G24T/S28R/G35V (H:KT TRV) & V3-4_IGLJ1*01 V91L/S96P S52G (Fab, V domains shown)
VH: B1 VH
VL: B1 VL with S52G
notes: Tested as a Fab made in E. coli; also called H:KT TRV & L:LP S52G

ELISA signal [1]: 0.16
ELISA signal [2]: 0.01
ELISA signal [3]: 0
ELISA signal [4]: 0.01
ELISA signal [5]: 0.01
ELISA signal [6]: 0.03
ELISA signal [7]: 0.04
ELISA signal [8]: 0.08
B4: Fab VH5-51_IGHD5-18*01>3_IGHJ4*01 G100K/G104T G24T/S28R/G35V (H:KT TRV) & V3-4_IGLJ1*01 (Fab, V domains shown)
VH: B1 VH
VL: B1 VL with L91V, P96S
notes: Tested as a Fab made in E. coli; also called H:KT TRV & L:wt; Wildtype (light chain)

fold signal/noise ratio against the parent Fab [9]: ~3 fold
B5: Fab VH1-46_IGHD6-6*01_IGHJ1*01 S102A & L6_IGKJ1*01 (Fab, V domains shown)
VH: QVQLVQSGAEVKKPGASVKVSCKASGYTFTSYYMHWVRQAPGQGLEWMGIINPSGGSTSYAQKFQGRVTMTRDTSTSTVYMELSSLRSEDTAVYYCAREEYASSSAEYFQHWGQGTLVTVSS
VL: not shown
notes: Fab

fold signal/noise ratio against the parent Fab [9]: ≥ 4 fold
B6: Fab VH1-46_IGHD6-6*01_IGHJ1*01 S104F & L6_IGKJ1*01 (Fab, V domains shown)
VH: B5 VH with A102S, S104F
VL: not shown
notes: Fab

ECL signal/noise ratio [10]: 1.4
ECL signal/noise ratio [11]: 1.2
ECL signal/noise ratio [12]: 1.4
ECL signal/noise ratio [13]: 1.4
ECL signal/noise ratio [14]: 31.6
ECL signal/noise ratio [15]: 1
ECL signal/noise ratio [16]: 1.2
ECL signal/noise ratio [17]: 1
ECL signal/noise ratio [18]: 1.2
ECL signal/noise ratio [19]: 1.3
ECL signal/noise ratio [20]: 1.1
ECL signal/noise ratio [21]: 1.3
ECL signal/noise ratio [22]: 1.1
ECL signal/noise ratio [23]: 4.5
ECL signal/noise ratio [24]: 0.9
ECL signal/noise ratio [25]: 1.3
ECL signal/noise ratio [26]: 1.2
ECL signal/noise ratio [27]: 1.4
B7: Fab VH1-46_IGHD6-6*01_IGHJ1*01 S103A & L6_IGKJ1*01 (Fab, V domains shown)
VH: B5 VH with A102S, S103A
VL: not shown
notes: Fab made in E. coli; The heavy chain variable region was cloned into Plasmid A (CH1, His6 and Flag tags) and the kappa light chain variable region into Plasmid C (kappa CL)

fold signal/noise ratio against the parent Fab [9]: ~3 fold
B8: Fab VH1-46_IGHD6-6*01_IGHJ1*01 S103P & L6_IGKJ1*01 (Fab, V domains shown)
VH: B5 VH with A102S, S103P
VL: not shown
notes: Fab

ECL signal/noise ratio [10]: 1.1
ECL signal/noise ratio [11]: 1
ECL signal/noise ratio [12]: 0.8
ECL signal/noise ratio [13]: 1
ECL signal/noise ratio [14]: 88.3
ECL signal/noise ratio [15]: 1
ECL signal/noise ratio [16]: 0.6
ECL signal/noise ratio [17]: 0.8
ECL signal/noise ratio [18]: 0.8
ECL signal/noise ratio [19]: 1.4
ECL signal/noise ratio [20]: 1.5
ECL signal/noise ratio [21]: 1
ECL signal/noise ratio [22]: 1.2
ECL signal/noise ratio [23]: 27
ECL signal/noise ratio [24]: 1
ECL signal/noise ratio [25]: 1
ECL signal/noise ratio [26]: 1
ECL signal/noise ratio [27]: 1.4
B9: Fab VH1-46_IGHD6-6*01_IGHJ1*01 S104H & L6_IGKJ1*01 (Fab, V domains shown)
VH: B5 VH with A102S, S104H
VL: not shown
notes: as for B7

ECL signal/noise ratio [10]: 2.1
ECL signal/noise ratio [11]: 2
ECL signal/noise ratio [12]: 1.4
ECL signal/noise ratio [13]: 2.4
ECL signal/noise ratio [14]: 139
ECL signal/noise ratio [15]: 2.2
ECL signal/noise ratio [16]: 2.3
ECL signal/noise ratio [17]: 1.9
ECL signal/noise ratio [18]: 2.6
ECL signal/noise ratio [19]: 1.5
ECL signal/noise ratio [20]: 1
ECL signal/noise ratio [21]: 1.1
ECL signal/noise ratio [22]: 1.8
ECL signal/noise ratio [23]: 22.9
ECL signal/noise ratio [24]: 2
ECL signal/noise ratio [25]: 1.8
ECL signal/noise ratio [26]: 1.2
ECL signal/noise ratio [27]: 1.8
B10: Fab VH1-46_IGHD6-6*01_IGHJ1*01 S103P & L6_IGKJ1*01 (Fab, V domains shown)
VH: B5 VH with A102S, S103P
VL: not shown
notes: as for B7
